{"source": "paper PMC5624674", "about": "(2017)", "parents": {"B1": {"name": "λCI-ZipACTD (residues 186–328) [E. coli] / α-FtsZ fusion protein (wild-type E. coli FtsZ) [E. coli] (parent complex)", "chain 1": "not shown", "chain 2": "MFEPMELTNDAVIKVIGVGGGGGNAVEHMVRERIEGVEFFAVNTDAQALRKTAVGQTIQIGSGITKGLGAGANPEVGRNAADEDRDALRAALEGADMVFIAAGMGGGTGTGAAPVVAEVAKDLGILTVAVVTKPFNFEGKKRMAFAEQGITELSKHVDSLITIPNDKLLKVLGRGISLLDAFGAANDVLKGAVQGIAELITRPGLMNVDFADVRTVMSEMGYAMMGSGVASGEDRAEEAAEMAISSPLLEDIDLSGARGVLVNITAGFDLRLDEFETVGNTIRAFASDNATVVIGTSLDPDMNDELRVTVVATGIGMDKRPEITLVTNKQVQQPVMDRYQQHGMAPLTQEQKPVAKVVNDNAPQTAKEPDYLDIPAFLRKQAD"}}}
{"variants_of": "B1", "assay": "bacterial two-hybrid β-galactosidase assay; 25 μM IPTG; parent: 720; read off a plot", "units": {"response": "Miller Units"}}
{"variant": "chain 2 L179R", "response": "~880"}
{"variant": "chain 2 L169P", "response": "~790"}
{"variant": "chain 2 S177P", "response": "~790"}
{"variant": "chain 2 D180N", "response": "~770"}
{"variant": "chain 2 F182S", "response": "~770"}
